Test results: publication PMC12203938
Several values for one entry are separate records, joined by “and”; a condition that tells them apart may be missing. Identical values can stand only once. One block for each substance: values may come before it.

Legend:
[1] = target: firefly luciferase FLUC^(ΔCys, K141C, K491C), biotinylated, Alexa Fluor 647-labelled (firefly) [luciferase: P08659]; assay: single-molecule TIRF colocalisation and photobleaching step counting; AF647-labelled client (2 μM) with AF488-labelled sHsp or SSB (4 μM) in 50 mM phosphate buffer pH 7.4 at 42°C for up to 7 h; aliquots cross-linked with BS3 (250 μM), diluted to 1-20 nM; biotinylated FLUC or rhodanese held on a NeutrAvidin coverslip; imaged at 20°C; chance colocalisation subtracted
[2] = target: rhodanese^(K135C, K174C) with AviTag, biotinylated, Alexa Fluor 647-labelled (UniProt P00586); assay: as above
[3] = target: chloride intracellular channel 1, CLIC1^C24 (C59A, C89A, C178A, C191A, C223A), Alexa Fluor 647-labelled (UniProt O00299); assay: single-molecule TIRF colocalisation and photobleaching step counting; AF647-labelled CLIC (2 μM) with AF488-labelled sHsp (4 μM) in 50 mM phosphate buffer pH 7.4 at 42°C for up to 7 h; aliquots cross-linked with BS3 (250 μM), diluted to 1-20 nM; His-tagged CLIC held through a biotinylated anti-6X His antibody on a NeutrAvidin coverslip; imaged at 20°C; chance colocalisation subtracted
[4] = target: αB-crystallin with an additional C-terminal cysteine (αB-c_(C176)), Alexa Fluor 488-labelled (human) (UniProt P02511); assay: single-molecule TIRF colocalisation and photobleaching step counting; AF647-labelled client (2 μM) with AF488-labelled sHsp or SSB (4 μM) in 50 mM phosphate buffer pH 7.4 at 42°C for up to 7 h; aliquots cross-linked with BS3 (250 μM), diluted to 1-20 nM; biotinylated FLUC or rhodanese held on a NeutrAvidin coverslip; imaged at 20°C; chance colocalisation subtracted

FLUC subunits in complexes with Hsp27 (1 h) (FLUC subunits/complex) [1]: 5
FLUC subunits per molecule, in and out of complexes with Hsp27 (0 h) [1]: 2 subunits
median FLUC subunits in complexes with Hsp27 (0.6 h) (subunits per complex) [1]: 20
percent of client molecules colocalised with the sHsp (after 1 h) [1]: 17%
percent of client molecules colocalised with the sHsp (within 0.6 h) [1]: 35%
stoichiometry N ([1]; scale: Hsp27:FLUC): 0.68 and 1.75 and 1.24
percent of client molecules colocalised with the sHsp (within 0.3 h) [2]: 40%
percent of client molecules colocalised with the sHsp (first hour) [3]: 15%
stoichiometry N ([3]; scale: Hsp27:CLIC): 0.29 and 0.69
Substance: Hsp27 cysteine mutant (Hsp27_(C137S,C207)), Alexa Fluor 488-labelled (from UniProt P04792 1-205) (natural protein)

percent colocalised [2]: < 3%
Substance: single-stranded binding protein (SSB), fluorescently labelled, non-chaperone control (from UniProt P0AGE0 1-178) (natural protein)

FLUC subunits in complexes with αB-c [1]: 8 subunits
colocalised αB-c subunits per complex (1 h) (subunits/complex) [1]: 13
percent of client molecules colocalised with the sHsp (within 0.3 h) [1]: 40%
stoichiometry N (subunits/oligomer) [4]: 6
percent of client molecules colocalised with the sHsp (within 0.3 h) [3]: 20%
Substance: αB-crystallin with an additional C-terminal cysteine (αB-c_(C176)), Alexa Fluor 488-labelled (from UniProt P02511 1-175) (natural protein)
